Data on one molecule can be found in article PMC9839844, “PPDPF Promotes the Development of Mutant KRAS‐Driven Pancreatic Ductal Adenocarcinoma by Regulating the GEF Activity of SOS1” (Advanced Science, 2022).

The target of the assay is T1, SOS1^Cat (catalytic module of SOS1: REM and CDC25 domains), recombinant (UniProt Q07889 566-1046).
T1 construct: SOS1, Cat domain (REM and CDC25 domains together); cloned into the ProEX HTb vector; also called SOS^Cat; Cat domain; source: E. coli BL21 (Rosta), purified (His beads)
T1 sequence: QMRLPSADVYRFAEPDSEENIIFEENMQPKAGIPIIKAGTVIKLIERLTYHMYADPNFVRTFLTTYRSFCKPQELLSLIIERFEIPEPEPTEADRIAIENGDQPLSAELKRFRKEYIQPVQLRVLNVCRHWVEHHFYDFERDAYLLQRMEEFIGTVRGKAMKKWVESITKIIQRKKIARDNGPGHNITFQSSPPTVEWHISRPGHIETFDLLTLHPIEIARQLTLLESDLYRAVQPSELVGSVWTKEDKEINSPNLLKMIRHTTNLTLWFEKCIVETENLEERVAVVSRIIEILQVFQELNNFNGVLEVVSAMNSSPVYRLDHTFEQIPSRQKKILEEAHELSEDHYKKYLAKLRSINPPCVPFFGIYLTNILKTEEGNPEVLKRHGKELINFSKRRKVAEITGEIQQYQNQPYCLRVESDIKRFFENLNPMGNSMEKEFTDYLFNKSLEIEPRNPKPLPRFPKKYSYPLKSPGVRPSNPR
The experiment in a line: pull-down; GST pulldown in vitro with recombinant proteins. Conditions: both partners purified.

B1: PPDPF, recombinant (natural protein, UniProt Q9H3Y8 1-114, looked up)
chain: MAAIPSSGSLVATHDYYRRRLGSTSSNSSCSSTECPGEAIPHPPGLPKADPGHWWASFFFGKSTLPFMATVLESAEHSEPPQASSSMTACGLARDAPRKQPGGQSSTASAGPPS
notes: Pancreatic progenitor cell differentiation and proliferation factor (PPDPF); subcloned into pGEX-4T-1; The methods say that the beads were incubated with thrombin; also called PPDPF recombinant protein; source: E. coli BL21, purified (GST beads)
As for B1, the binding result is reported as “binds”.
